For 10 molecules, Kd, binding result and kon results are on record in publication PMC4275594 (Nature Communications, 2014).

Test [1] concerns the target C-terminal 6xHis tagged IL-18Rβ extracellular domains (residues 15-356), for SPR (human) (UniProt O95256). The experiment in a line: SPR; BIAcore 3000, 25 °C, C-terminal 6xHis IL-18Rβ immobilised (~100 RU) on an NTA sensor chip, un-tagged IL-18Rα saturated with 500 nM IL-18 as analyte in HBS-P. In general terms: In SPR one partner is held on a chip, and binding of the other changes the refractive index at the surface.

In test [2] the target is T1, IL-18 receptor β extracellular domains (residues 15-356), construct for crystallography (human, UniProt O95256-1 15-356).
T1 construct: human IL-18 receptor β, extracellular domains, residues 15-356 of NM_003853; also called IL-18Rβ; source: Sf9 insect cells, secreted, purified (ion exchange, Ni-NTA, gel filtration with or without HRV 3C treatment)
T1 sequence (looked up): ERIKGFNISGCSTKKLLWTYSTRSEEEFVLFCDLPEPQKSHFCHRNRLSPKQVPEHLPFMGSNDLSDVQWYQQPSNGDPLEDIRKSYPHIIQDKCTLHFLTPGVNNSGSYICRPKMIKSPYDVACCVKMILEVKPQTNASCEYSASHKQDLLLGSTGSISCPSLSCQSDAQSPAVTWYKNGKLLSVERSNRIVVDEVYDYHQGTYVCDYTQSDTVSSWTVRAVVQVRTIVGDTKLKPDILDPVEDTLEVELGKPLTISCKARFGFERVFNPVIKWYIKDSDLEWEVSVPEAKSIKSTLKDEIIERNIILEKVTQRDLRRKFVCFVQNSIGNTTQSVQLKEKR
Put plainly: crystal structure; IL-18/IL-18Rα/IL-18Rβ ternary complex, 3.10 Å, one copy in the asymmetric unit, data at 100 K (PDB 3WO4). Particulars: both partners purified.

Test [3] addresses T2, preformed binary complex of IL-18 wild type and un-tagged IL-18Rα wild type extracellular domain (human, UniProt Q14116 37-193; Q13478 20-329).
T2 construct: interleukin-18, human, mature IL-18 (residues 1-157); numbers count on: the mature protein; IL-18 receptor alpha, human, extracellular domains, residues 20-329 of NM_003855; also called IL-18 WT/IL-18Rα WT complex; IL-18/IL-18Rα; source: IL-18: E. coli BL21(DE3), purified; IL-18Rα: silkworm larvae haemolymph, purified; un-tagged IL-18Rα saturated with 500 nM IL-18
The experiment in a line: SPR; BIAcore 3000, 25 °C; C-terminal 6xHis IL-18Rβ (wild type or mutant) immobilised at about 100 RU on a Ni-NTA sensor chip; un-tagged IL-18Rα saturated with 500 nM IL-18 (preformed binary complex) injected as analyte in HBS-P; triplicate. The settings on record: both partners purified.

Test [4] concerns the target T3, preformed binary complex of IL-18 wild type and un-tagged IL-18Rα N236Q extracellular domain (human, UniProt Q14116 37-193; Q13478 20-329, N236Q).
T3 construct: interleukin-18, human, mature IL-18 (residues 1-157); numbers count on: the mature protein; IL-18 receptor alpha, human, extracellular domains, residues 20-329 of NM_003855; lacks the N-linked sugar chain on N236; also called IL-18WT/IL-18Rα mutant complex; IL18/IL18Rα-N236Q; source: IL-18: E. coli BL21(DE3), purified; IL-18Rα: silkworm larvae haemolymph, purified; un-tagged IL-18Rα saturated …
Described as above. The settings on record: both partners purified.

In test [5] the target is T4, IL-18 WT/IL-18Rα WT complex (SPR analyte) (human, UniProt Q14116 37-193; Q13478 20-329).
T4 construct: human interleukin-18, mature IL-18 (residues 1-157); numbers count on: the mature protein; human IL-18 receptor α, extracellular domains, residues 20-329 of NM_003855, printed as un-tagged; also called IL-18/IL-18Rα binary complex; IL-18 WT(control); source: IL-18: E. coli BL21(DE3), purified; IL-18Rα: silkworm larvae haemolymph, purified; un-tagged IL-18Rα saturated with 500 nM IL-18
Put plainly: SPR; BIAcore 3000, 25 °C, C-terminal 6xHis IL-18Rβ immobilised (~100 RU) on an NTA sensor chip, un-tagged IL-18Rα saturated with 500 nM IL-18 as analyte in HBS-P. The settings on record: both partners purified.

Test [6] concerns the target T5, IL-18WT/IL-18Rα N236Q complex (SPR analyte) (human, UniProt Q14116 37-193; Q13478 20-329, N236Q).
T5 construct: human interleukin-18, mature IL-18 (residues 1-157); numbers count on: the mature protein; human IL-18 receptor α, extracellular domains, residues 20-329 of NM_003855, used instead of the un-tagged wild type; The mutation removes the N-linked sugar chain at Asn236; also called N236Q^Rα; source: IL-18: E. coli BL21(DE3), purified; IL-18Rα mutant: silkworm larvae haemolymph, purified; IL-18Rα …
The description is as above. Particulars: both partners purified.

Take “IL-18 D110A/IL-18Rα WT complex (SPR analyte) (from UniProt Q13478 20-329)”: the dissociation constant Kd (as a rule, the concentration at which binding is half-saturated) in test [1] was determined as 0.056 µM.
The same measure, in the same setting: then “IL-18 R147A/IL-18Rα WT complex (SPR analyte) (from UniProt Q13478 20-329)”, with 0.057 µM; and “IL-18 G145A/IL-18Rα WT complex (SPR analyte) (from UniProt Q13478 20-329)”, with 0.028 µM.

B1: IL-18 receptor α extracellular domains (residues 20-329), construct for crystallography (domain or fragment, human, UniProt Q13478 20-329, looked up)
chain: ESCTSRPHITVVEGEPFYLKHCSCSLAHEIETTTKSWYKSSGSQEHVELNPRSSSRIALHDCVLEFWPVELNDTGSYFFQMKNYTQKWKLNVIRRNKHSCFTERQVTSKIVEVKKFFQITCENSYYQTLVNSTSLYKNCKKLLLENNKNPTIKKNAEFEDQGYYSCVHFLHHNGKLFNITKTFNITIVEDRSNIVPVLLGPKLNHVAVELGKNVRLNCSALLNEEDVIYWMFGEENGSDPNIHEEKEMRIMTPEGKWHASKVLRIENIGESNLNVLYNCTVASTGGTDTKSFILVRKADMADIPGHVFTR
modifications: N-linked glycosyl chains at Asn91, 102, 150, 197, 203, 236 and 297 (high-mannose glycans, Sf9)
notes: human IL-18 receptor α, extracellular domains, residues 20-329 of NM_003855; also called IL-18Rα; source: Sf9 insect cells, secreted, purified (ion exchange, Ni-NTA, gel filtration with or without HRV 3C treatment)
On to B1, for which the binding result in test [2] is listed as “binds”.

B2: human IL-18 receptor beta extracellular domain (residues 15-356), C-terminal 6xHis, wild type, from silkworm (receptor, UniProt O95256-1 15-356, looked up)
chain: ERIKGFNISGCSTKKLLWTYSTRSEEEFVLFCDLPEPQKSHFCHRNRLSPKQVPEHLPFMGSNDLSDVQWYQQPSNGDPLEDIRKSYPHIIQDKCTLHFLTPGVNNSGSYICRPKMIKSPYDVACCVKMILEVKPQTNASCEYSASHKQDLLLGSTGSISCPSLSCQSDAQSPAVTWYKNGKLLSVERSNRIVVDEVYDYHQGTYVCDYTQSDTVSSWTVRAVVQVRTIVGDTKLKPDILDPVEDTLEVELGKPLTISCKARFGFERVFNPVIKWYIKDSDLEWEVSVPEAKSIKSTLKDEIIERNIILEKVTQRDLRRKFVCFVQNSIGNTTQSVQLKEKR
notes: IL-18 receptor beta, human, extracellular domains, residues 15-356 of NM_003853; also called IL-18Rβ; IL-18Rβ WT; source: silkworm (B. mori) larvae, BmNPV bacmid, haemolymph, purified (ion exchange, Ni-NTA, gel filtration); not shown: 6xHis, C-terminal, kept
In the case of B2, the kon (usually a measure of how fast the partners come together) in test [3] stood at 11000 M⁻¹ s⁻¹; in test [4], 12000 M⁻¹ s⁻¹.

B3: IL-18Rβ L167A, C-terminal 6xHis tagged extracellular domains (residues 15-356), for SPR (domain or fragment, human, UniProt O95256-1 15-356, looked up)
chain: ERIKGFNISGCSTKKLLWTYSTRSEEEFVLFCDLPEPQKSHFCHRNRLSPKQVPEHLPFMGSNDLSDVQWYQQPSNGDPLEDIRKSYPHIIQDKCTLHFLTPGVNNSGSYICRPKMIKSPYDVACCVKMILEVKPQTNASCEYSASHKQDLLAGSTGSISCPSLSCQSDAQSPAVTWYKNGKLLSVERSNRIVVDEVYDYHQGTYVCDYTQSDTVSSWTVRAVVQVRTIVGDTKLKPDILDPVEDTLEVELGKPLTISCKARFGFERVFNPVIKWYIKDSDLEWEVSVPEAKSIKSTLKDEIIERNIILEKVTQRDLRRKFVCFVQNSIGNTTQSVQLKEKR
notes: human IL-18 receptor β, extracellular domains, residues 15-356 of NM_003853; source: silkworm (B. mori) larvae, BmNPV bacmid, haemolymph, purified as from Sf9; not shown: 6xHis, C-terminal, kept
As for B3, the Kd in test [5] is 0.033 µM.

B4: IL-18Rβ E210A, C-terminal 6xHis tagged extracellular domains (residues 15-356), for SPR (domain or fragment, human, UniProt O95256-1 15-356, looked up)
chain: ERIKGFNISGCSTKKLLWTYSTRSEEEFVLFCDLPEPQKSHFCHRNRLSPKQVPEHLPFMGSNDLSDVQWYQQPSNGDPLEDIRKSYPHIIQDKCTLHFLTPGVNNSGSYICRPKMIKSPYDVACCVKMILEVKPQTNASCEYSASHKQDLLLGSTGSISCPSLSCQSDAQSPAVTWYKNGKLLSVERSNRIVVDAVYDYHQGTYVCDYTQSDTVSSWTVRAVVQVRTIVGDTKLKPDILDPVEDTLEVELGKPLTISCKARFGFERVFNPVIKWYIKDSDLEWEVSVPEAKSIKSTLKDEIIERNIILEKVTQRDLRRKFVCFVQNSIGNTTQSVQLKEKR
notes: human IL-18 receptor β, extracellular domains, residues 15-356 of NM_003853; In the luciferase reporter assay the same mutation stood in full-length IL-18Rβ (pcDNA3.1+) expressed in HEK293 cells; source: silkworm (B. mori) larvae, BmNPV bacmid, haemolymph, purified as from Sf9; not shown: 6xHis, C-terminal, kept
B4 registered a dissociation constant (Kd) in test [5] of 0.327 µM. Compared with the last molecule, the Kd is about 9.9-fold higher.

B5: IL-18Rβ Y214A, C-terminal 6xHis tagged extracellular domains (residues 15-356), for SPR (domain or fragment, human, UniProt O95256-1 15-356, looked up)
chain: ERIKGFNISGCSTKKLLWTYSTRSEEEFVLFCDLPEPQKSHFCHRNRLSPKQVPEHLPFMGSNDLSDVQWYQQPSNGDPLEDIRKSYPHIIQDKCTLHFLTPGVNNSGSYICRPKMIKSPYDVACCVKMILEVKPQTNASCEYSASHKQDLLLGSTGSISCPSLSCQSDAQSPAVTWYKNGKLLSVERSNRIVVDEVYDAHQGTYVCDYTQSDTVSSWTVRAVVQVRTIVGDTKLKPDILDPVEDTLEVELGKPLTISCKARFGFERVFNPVIKWYIKDSDLEWEVSVPEAKSIKSTLKDEIIERNIILEKVTQRDLRRKFVCFVQNSIGNTTQSVQLKEKR
notes: as for B3
B5 had a Kd in test [5] of 0.05 µM. Compared with the last molecule, the Kd is about 6.5-fold lower.

B6: C-terminal 6xHis tagged IL-18Rβ extracellular domains (residues 15-356), for SPR (domain or fragment, human, UniProt O95256-1 15-356, looked up)
chain: ERIKGFNISGCSTKKLLWTYSTRSEEEFVLFCDLPEPQKSHFCHRNRLSPKQVPEHLPFMGSNDLSDVQWYQQPSNGDPLEDIRKSYPHIIQDKCTLHFLTPGVNNSGSYICRPKMIKSPYDVACCVKMILEVKPQTNASCEYSASHKQDLLLGSTGSISCPSLSCQSDAQSPAVTWYKNGKLLSVERSNRIVVDEVYDYHQGTYVCDYTQSDTVSSWTVRAVVQVRTIVGDTKLKPDILDPVEDTLEVELGKPLTISCKARFGFERVFNPVIKWYIKDSDLEWEVSVPEAKSIKSTLKDEIIERNIILEKVTQRDLRRKFVCFVQNSIGNTTQSVQLKEKR
notes: human IL-18 receptor β, extracellular domains, residues 15-356 of NM_003853; also called IL-18Rβ WT; IL-18Rβ WT (control); source: silkworm (B. mori) larvae, BmNPV bacmid, haemolymph, purified as from Sf9; not shown: 6xHis, C-terminal, kept
In the case of B6, the equilibrium dissociation constant (Kd) in test [5] stood at 0.015 µM; in test [6], 0.017 µM.

B7: IL-18Rβ K313A, C-terminal 6xHis tagged extracellular domains (residues 15-356), for SPR (domain or fragment, human, UniProt O95256-1 15-356, looked up)
chain: ERIKGFNISGCSTKKLLWTYSTRSEEEFVLFCDLPEPQKSHFCHRNRLSPKQVPEHLPFMGSNDLSDVQWYQQPSNGDPLEDIRKSYPHIIQDKCTLHFLTPGVNNSGSYICRPKMIKSPYDVACCVKMILEVKPQTNASCEYSASHKQDLLLGSTGSISCPSLSCQSDAQSPAVTWYKNGKLLSVERSNRIVVDEVYDYHQGTYVCDYTQSDTVSSWTVRAVVQVRTIVGDTKLKPDILDPVEDTLEVELGKPLTISCKARFGFERVFNPVIKWYIKDSDLEWEVSVPEAKSIKSTLADEIIERNIILEKVTQRDLRRKFVCFVQNSIGNTTQSVQLKEKR
notes: as for B4
Consider B7, for which the dissociation constant Kd in test [5] was found to be 0.109 µM.
